Measurements: publication PMC4175178

Target: 60S ribosomal subunit-nascent chain complex made from F-VHP-β RNCs (not stated | rabbit (endogenous in reticulocyte lysate, RRL)) (UniProt G1TSG1)

ubiquitination of 60S versus 80S nascent chain complexes, separated on a sucrose gradient and given purified Listerin, E1, E2, ubiquitin and ATP (Figure S4E): 10 fold
Substance: FLAG-tagged human Listerin (from UniProt O94822 1-1766) (enzyme)
